Test results published in paper PMC8866402.

Biological target: N-His6-fortilin (human) (UniProt P13693)
Assay: SPR; Biacore 3000, 25 °C, HBS-EPS (0.01 M HEPES, 0.5 M NaCl, 3 mM EDTA, 0.005% Tween 20, pH 7.4), 20 μL/min; forms of rh-fortilin amine-coupled to a CM5 chip; rh-TGF-β1 injected (0 to 200 nM; 100 nM for scouting)

Sequence of N-His6-fortilin (human) (P13693 whole entry): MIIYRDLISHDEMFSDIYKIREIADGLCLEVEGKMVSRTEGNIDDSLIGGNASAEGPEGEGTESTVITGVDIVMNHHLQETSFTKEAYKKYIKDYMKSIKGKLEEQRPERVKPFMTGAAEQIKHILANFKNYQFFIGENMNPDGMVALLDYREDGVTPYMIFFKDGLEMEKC

recombinant human TGF-β1 produced in-house (ligand)
Kd: 210 nM
